B1: MCT1 (monocarboxylate transporter 1), endogenous (other, human, UniProt P53985 1-500, looked up)
chain: MPPAVGGPVGYTPPDGGWGWAVVIGAFISIGFSYAFPKSITVFFKEIEGIFHATTSEVSWISSIMLAVMYGGGPISSILVNKYGSRIVMIVGGCLSGCGLIAASFCNTVQQLYVCIGVIGGLGLAFNLNPALTMIGKYFYKRRPLANGLAMAGSPVFLCTLAPLNQVFFGIFGWRGSFLILGGLLLNCCVAGALMRPIGPKPTKAGKDKSKASLEKAGKSGVKKDLHDANTDLIGRHPKQEKRSVFQTINQFLDLTLFTHRGFLLYLSGNVIMFFGLFAPLVFLSSYGKSQHYSSEKSAFLLSILAFVDMVARPSMGLVANTKPIRPRIQYFFAASVVANGVCHMLAPLSTTYVGFCVYAGFFGFAFGWLSSVLFETLMDLVGPQRFSSAVGLVTIVECCPVLLGPPLLGRLNDMYGDYKYTYWACGVVLIISGIYLFIGMGINYRLLAKEQKANEQKKESKEEETSIDVAGKPNEVTKAAESPDQKDTDGGPKEEESPV
notes: Endogenous protein in HEK 293T or MM1S cell lysates

Tests used:
HA-CUL4A = target: T1, HA-CUL4A (UniProt Q13619 1-759, limits assumed); assay: HA-CUL4A purified from HEK293T cells, incubated with MM1S extracts, immunoblot
T1 construct: Purified from HEK293T cells and incubated with MM1S cell extracts; not shown: HA tag
Excerpt: Bound protein fractions were subjected to immunoblot analysis using the indicated antibodies.

[1] = target: T2, Strep-Flag tagged CRBN (CRBN-SF) (human, UniProt Q96SW2 1-442); assay: tandem affinity purification (Strep, then Flag) from HEK 293T cells, mass spectrometry
T2 construct: Tag put at the C-terminus from the vector's name (pcDNA-C-SF-TAP); also called CRBN-SF-TAP; CRBN-tandem-Strep-FLAG-tagged; not shown: tandem Strep-FLAG tag of vector pcDNA-C-SF-TAP

FLAG-MCT1 [2] = target: T3, FLAG-MCT1 (human, UniProt P53985 1-500); assay: FLAG-MCT1 immunoprecipitation from cycloheximide-treated HEK293T cells, immunoblot (FIG. 13G)
T3 construct: Expressed in HEK293T cells; The tag is written first only because the name prints it so; also called Flag-tagged MCT1; not shown: FLAG tag
T3 sequence (looked up): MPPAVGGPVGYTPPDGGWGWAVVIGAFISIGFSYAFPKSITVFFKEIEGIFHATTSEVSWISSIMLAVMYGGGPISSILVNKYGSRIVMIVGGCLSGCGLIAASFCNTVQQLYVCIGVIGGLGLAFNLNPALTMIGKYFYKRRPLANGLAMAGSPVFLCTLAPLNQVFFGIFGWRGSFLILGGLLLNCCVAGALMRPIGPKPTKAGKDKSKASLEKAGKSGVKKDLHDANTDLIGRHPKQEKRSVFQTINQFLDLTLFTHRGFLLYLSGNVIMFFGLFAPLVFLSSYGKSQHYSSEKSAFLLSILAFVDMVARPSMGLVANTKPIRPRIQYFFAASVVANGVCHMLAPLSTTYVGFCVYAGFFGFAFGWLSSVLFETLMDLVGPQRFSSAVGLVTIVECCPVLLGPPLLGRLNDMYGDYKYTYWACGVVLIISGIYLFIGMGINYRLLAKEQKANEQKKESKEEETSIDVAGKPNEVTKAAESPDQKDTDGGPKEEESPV

[3] = target: T4, Cereblon (CRBN), human, wild type, without tag (endogenous or expressed from plasmid) (human, UniProt Q96SW2 1-442); assay: co-immunoprecipitation
T4 construct: Endogenous protein in HEK 293T or MM1.S/MM1S lysates, or untagged wild-type CRBN re-expressed in CRBN-/- HEK 293T cells; also called CRBN WT; endogenous CRBN
Method: Immunocomplexes were probed with antibodies to the indicated proteins.
(§1) Cell samples were lysed in lysis buffer (NaCl 150mM, Tris-HCl 50 mM, MgCl2 5 mM, EDTA 1 mM, NP-40 0,1%, Glycerol 5% and inhibitors) for whole cell lysates, immunoprecipitations or pulldown experiments. […] Briefly, the cellular lysates were centrifuged 15 min at 14,000 rpm at 4° C. to separate from cellular debris. Protein concentration in the supernatants was measured before Laemmli buffer was added. The lysates were separated by SDS-PAGE and blotted onto PVDF (polyvinylidene difluoride) membranes. After blotting, PVDF membranes were stained with Ponceau solution to evaluate protein loading. After washing and blocking unspecific bindings in 5% milk, the membranes were incubated with primary antibodies. After addition of horseradish peroxidase coupled secondary antibodies, western blot membranes were developed using the ECL (enhanced chemoluminescence) method (SuperSignal West reagents from Thermo Scientific). […] For the experiments using a protein cross linker, DSS (Pierce) was added to the cells to a final concentration of 1 mM for 45 minutes at RT. […] After washing the beads four times in lysis buffer, Laemmli buffer was added and proteins were analyzed by SDS- electrophoresis.

FLAG-MCT1 [4] = target: T3, FLAG-MCT1; assay: Flag-bead immunoprecipitation of Flag-MCT1 from HEK 293T cells with or without co-expressed CRBN, Western blot for CD147
Method: After lysis, MCT1 was immunoprecipitated with Flag-beads. Binding to CD147 was analysed by Western Blot.
as §1

[5] = target: B1; assay: FLAG-CD147 immunoprecipitation from cycloheximide-treated HEK293T cells, immunoblot (FIG. 13F)
Method: Cells were treated with cycloheximide (CHX) for the indicated times before lysis.

[6] = target: T4, Cereblon (CRBN), human, wild type, …; assay: heading of FIG. 16: FLAG immunoprecipitation from HEK293T cells (16A) and GST-CRBN pull-down (16B)

T1 sequence (Q13619 whole entry): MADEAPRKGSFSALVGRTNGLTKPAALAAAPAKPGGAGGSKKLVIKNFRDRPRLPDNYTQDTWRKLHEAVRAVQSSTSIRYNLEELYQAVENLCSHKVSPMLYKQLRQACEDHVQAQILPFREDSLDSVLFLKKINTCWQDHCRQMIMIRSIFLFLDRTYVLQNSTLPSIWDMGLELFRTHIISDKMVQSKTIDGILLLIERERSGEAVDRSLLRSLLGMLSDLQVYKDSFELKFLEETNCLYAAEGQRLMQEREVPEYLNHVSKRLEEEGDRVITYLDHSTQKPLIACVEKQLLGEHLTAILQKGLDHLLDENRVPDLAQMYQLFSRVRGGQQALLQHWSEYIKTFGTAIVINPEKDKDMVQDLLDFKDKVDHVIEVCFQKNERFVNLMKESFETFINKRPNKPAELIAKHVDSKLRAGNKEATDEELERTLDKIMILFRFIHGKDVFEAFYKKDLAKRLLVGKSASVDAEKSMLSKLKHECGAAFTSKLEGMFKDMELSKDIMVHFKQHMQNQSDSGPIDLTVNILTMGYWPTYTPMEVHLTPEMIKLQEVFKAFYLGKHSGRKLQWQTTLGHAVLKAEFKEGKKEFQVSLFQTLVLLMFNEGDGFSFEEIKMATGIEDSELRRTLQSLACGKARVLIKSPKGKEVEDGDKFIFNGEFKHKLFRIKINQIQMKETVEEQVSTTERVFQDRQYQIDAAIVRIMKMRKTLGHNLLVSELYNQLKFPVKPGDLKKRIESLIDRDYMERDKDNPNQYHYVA
T4 sequence (Q96SW2 whole entry): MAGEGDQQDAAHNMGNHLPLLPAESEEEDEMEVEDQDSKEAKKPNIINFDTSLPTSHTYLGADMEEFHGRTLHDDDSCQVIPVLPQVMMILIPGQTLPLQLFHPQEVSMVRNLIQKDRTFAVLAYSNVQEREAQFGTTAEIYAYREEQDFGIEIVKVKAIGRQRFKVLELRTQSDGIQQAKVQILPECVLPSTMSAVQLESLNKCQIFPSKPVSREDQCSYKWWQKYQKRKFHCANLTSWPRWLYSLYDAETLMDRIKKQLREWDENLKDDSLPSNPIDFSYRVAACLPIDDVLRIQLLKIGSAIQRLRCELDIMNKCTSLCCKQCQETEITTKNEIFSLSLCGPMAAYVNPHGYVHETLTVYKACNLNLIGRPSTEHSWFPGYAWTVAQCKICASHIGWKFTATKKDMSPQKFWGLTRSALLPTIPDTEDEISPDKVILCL
T2 sequence (Q96SW2 whole entry): as above

Binder: B1
- binding result (HA-CUL4A): no binding

B2: CD147 (Basigin, EMMPRIN), endogenous (other, human, UniProt P35613-2 22-269, looked up)
chain: AAGTVFTTVEDLGSKILLTCSLNDSATEVTGHRWLKGGVVLKEDALPGQKTEFKVDSDDQWGEYSCVFLPEPMGTANIQLHGPPRVKAVKSSEHINEGETAMLVCKSESVPPVTDWAWYKITDSEDKALMNGSESRFFVSSSQGRSELHIENLNMEADPGQYRCNGTSSKGSDQAIITLRVRSHLAALWPFLGIVAEVLVLVTIIFIYEKRRKPEDVLDDDDAGSAPLKSSGQHQNDKGKNVRQRNSS
modifications: core-glycosylated (CG) and high-glycosylated (HG) forms
notes: as for B1
- binding result [1]: binds
- binding result (FLAG-MCT1 [2]): binds
- binding result (HA-CUL4A): no binding
- binding result [3]: binds

B3: HA-CD147 (other, human, UniProt P35613-2 22-269, looked up)
chain: AAGTVFTTVEDLGSKILLTCSLNDSATEVTGHRWLKGGVVLKEDALPGQKTEFKVDSDDQWGEYSCVFLPEPMGTANIQLHGPPRVKAVKSSEHINEGETAMLVCKSESVPPVTDWAWYKITDSEDKALMNGSESRFFVSSSQGRSELHIENLNMEADPGQYRCNGTSSKGSDQAIITLRVRSHLAALWPFLGIVAEVLVLVTIIFIYEKRRKPEDVLDDDDAGSAPLKSSGQHQNDKGKNVRQRNSS
notes: Expressed in HEK 293T cells; not shown: HA tag
- binding result (FLAG-MCT1 [4]): binds

B4: FLAG-CD147 (other, human, UniProt P35613-2 22-269, looked up)
chain: AAGTVFTTVEDLGSKILLTCSLNDSATEVTGHRWLKGGVVLKEDALPGQKTEFKVDSDDQWGEYSCVFLPEPMGTANIQLHGPPRVKAVKSSEHINEGETAMLVCKSESVPPVTDWAWYKITDSEDKALMNGSESRFFVSSSQGRSELHIENLNMEADPGQYRCNGTSSKGSDQAIITLRVRSHLAALWPFLGIVAEVLVLVTIIFIYEKRRKPEDVLDDDDAGSAPLKSSGQHQNDKGKNVRQRNSS
notes: Expressed in HEK293T cells; The tag is written first only because the name prints it so; also called FLAG-tagged CD147; not shown: FLAG tag
- binding result [5]: binds
- binding result [6]: binds
